The assay concerns the target T1, sENG-Fc (soluble endoglin Fc fusion) (human, UniProt P17813 26-586).
T1 construct: soluble endoglin (ENG, CD105) fused to Fc, recombinant human protein from R&D Systems; Construct limits are known only through the catalogue number; source: bought: R&D Systems (Cat.# 6578-EN), recombinant human protein
T1 sequence (looked up): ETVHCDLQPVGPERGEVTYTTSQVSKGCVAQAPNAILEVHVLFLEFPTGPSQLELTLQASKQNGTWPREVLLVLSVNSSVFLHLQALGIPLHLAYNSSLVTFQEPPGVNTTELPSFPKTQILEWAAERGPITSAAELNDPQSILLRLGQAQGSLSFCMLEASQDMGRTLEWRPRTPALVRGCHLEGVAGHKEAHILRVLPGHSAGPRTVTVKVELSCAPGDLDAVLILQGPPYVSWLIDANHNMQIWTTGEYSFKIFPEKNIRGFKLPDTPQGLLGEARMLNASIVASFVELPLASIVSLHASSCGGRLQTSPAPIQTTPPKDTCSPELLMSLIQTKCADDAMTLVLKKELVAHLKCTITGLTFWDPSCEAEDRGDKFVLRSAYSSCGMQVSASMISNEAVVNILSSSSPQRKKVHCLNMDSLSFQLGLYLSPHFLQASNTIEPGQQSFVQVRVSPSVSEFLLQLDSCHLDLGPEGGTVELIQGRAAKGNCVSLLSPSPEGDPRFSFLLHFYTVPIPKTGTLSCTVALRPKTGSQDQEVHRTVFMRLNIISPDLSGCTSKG
Nature of the assay: ELISA; ActRIIA-Fc coated on MaxiSorp plates (1 ug/mL in PBS, overnight, 4 °C), blocked with 1% BSA; BMP9 (15 ng/mL) added with increasing concentrations of sENG(M), sENG(D) or sENG-Fc; bound BMP9 detected with BMP-9 DuoSet ELISA reagents. To be noted: both partners purified. For orientation: In an ELISA, binding on a coated surface is turned into a signal by an enzyme label.

These results are taken from paper PMC10126157, “High concentrations of soluble endoglin can inhibit BMP9 signaling in non-endothelial cells” (Scientific Reports, 2023).

B1: Bone morphogenetic protein 9 (BMP9) (ligand, human, UniProt Q9UK05 320-429, looked up)
chain: SAGAGSHCQKTSLRVNFEDIGWDSWIIAPKEYEAYECKGGCFFPLADDVTPTKHAIVQTLVHLKFPTKVGKACCVPTKLSPISVLYKDDMGVPTLKYHYEGMSVAECGCR
notes: BMP9 (GDF2), recombinant human protein from R&D Systems; source: bought: R&D Systems (Cat.# 3209-BP), recombinant human protein
B1: the binding result is listed as “binds”.
